Assay: Titration of NAD-specific FRET sensor with NAD^+ and NADP^+
Type: binding
Procedure: In order to evaluate, that these mutations were sufficient to fully switch the specificity of the cofactor binding site of SPR from NADP(H) to NAD(H), we prepared titration experiments according to the similar procedure explained herein (example 3). The labelled sensor were diluted in buffer solution containing defined concentrations of NAD^+ and NADP^+ and measure with the fluorimeter (TECAN) (FIG. 4).

B1: SPR mutant with Asp^41 and Ala^42: initial trial SPR mutant sensor for NAD^+ (conjugate, UniProt P35270 1-261, looked up, variant A41D R42A)
Sepiapterin reductase: MEGGLGRAVCLLTGASRGFGRTLAPLLASLLSPGSVLVLSDANDEALRQLEAELGAERSGLRVVRVPADLGAEAGLQQLLGALRELPRPKGLQRLLLINNAGSLGDVSKGFVDLSDSTQVNNYWALNLTSMLCLTSSVLKAFPDSPGLNRTVVNISSLCALQPFKGWALYCAGKAARDMLFQVLALEEPNVRVLNYAPGPLDTDMQQLARETSVDPDMRKGLQELKAKGKLVDCKVSAQKLLSLLEKDEFKSGAHVDFYDK
  affinity and specificity for NAD^+: low affinity, but high specificity for NAD^+
